Molecular target: receptor for IFN λ expressed by reporter HL116 cells (UniProt Q8IU57)
Assay: cell-based or functional assay

Sequence of UniProt Q8IU57 (Q8IU57 21-520 limits assumed): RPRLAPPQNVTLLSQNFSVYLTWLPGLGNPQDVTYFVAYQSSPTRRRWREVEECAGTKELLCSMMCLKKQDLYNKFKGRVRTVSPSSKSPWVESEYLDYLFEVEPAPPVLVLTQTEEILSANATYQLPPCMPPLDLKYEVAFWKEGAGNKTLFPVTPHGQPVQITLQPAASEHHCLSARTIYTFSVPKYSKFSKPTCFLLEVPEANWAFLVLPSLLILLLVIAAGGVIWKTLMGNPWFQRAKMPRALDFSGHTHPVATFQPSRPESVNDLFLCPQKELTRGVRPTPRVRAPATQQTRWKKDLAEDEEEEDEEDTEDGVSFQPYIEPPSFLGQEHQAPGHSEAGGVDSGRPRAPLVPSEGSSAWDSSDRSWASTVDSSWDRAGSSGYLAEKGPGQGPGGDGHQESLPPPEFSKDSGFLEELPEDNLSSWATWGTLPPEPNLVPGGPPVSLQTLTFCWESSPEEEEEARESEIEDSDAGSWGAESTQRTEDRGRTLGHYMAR

“interferon lambda (IFN λ) secreted into the culture supernatant by 293T cell clones transduced with parental lentiviral particles (ligand)” showed a Luc exp 1, clone 1 of 68.2, a Luc exp 1, clone 2 of 73.2 and a Luc exp 1, clone 3 of 80.8. For the same substance, the Luc exp 1, clone 4 was 84.3, the Luc exp 1, clone 5 was 100 and the Luc exp 1, clone 6 was 77.7. For the same substance, the Luc exp 1, clone 7 was 90.9, the Luc exp 1, clone 8 was 88.9 and the Luc exp 1, clone 9 was 78.7. The Luc exp 1, clone 10 was 89.8, the Luc exp 1, clone 11 was 95.4 and the Luc exp 1, clone 12 was 77.2. It also gave a Luc exp 1, clone 13 of 94.4, a Luc exp 1, clone 14 of 89.2 and a Luc exp 1, clone 15 of 87.6. For the same substance, the Luc exp 1, clone 16 was 81.4, the Luc exp 1, clone 17 was 79.9 and the Luc exp 2, clone 1 was 68.8. It also gave a Luc exp 2, clone 2 of 66.3, a Luc exp 2, clone 3 of 87.3 and a Luc exp 2, clone 4 of 88.1. It also gave a Luc exp 2, clone 5 of 97.8, a Luc exp 2, clone 6 of 88.3 and a Luc exp 2, clone 7 of 95.1. It also gave a Luc exp 2, clone 8 of 107, a Luc exp 2, clone 9 of 99.2 and a Luc exp 2, clone 10 of 86.9. The Luc exp 2, clone 11 was 75.8, the Luc exp 2, clone 12 was 91.6 and the Luc exp 2, clone 13 was 94.8. The Luc exp 2, clone 14 was 72.9, the Luc exp 2, clone 15 was 87.8 and the Luc exp 2, clone 16 was 77.2. The Luc exp 2, clone 17 was 71.7, the Luciferase average, clone 1 was 68.2 and the Luciferase average, clone 2 was 69.7. It also gave a Luciferase average, clone 3 of 84, a Luciferase average, clone 4 of 86.3 and a Luciferase average, clone 5 of 99. For the same substance, the Luciferase average, clone 6 was 83, the Luciferase average, clone 7 was 93 and the Luciferase average, clone 8 was 97.9. For the same substance, the Luciferase average, clone 9 was 89, the Luciferase average, clone 10 was 88.3 and the Luciferase average, clone 11 was 85.6. For the same substance, the Luciferase average, clone 12 was 84.4, the Luciferase average, clone 13 was 94.6 and the Luciferase average, clone 14 was 81.1. For the same substance, the Luciferase average, clone 15 was 87.7, the Luciferase average, clone 16 was 79.3 and the Luciferase average, clone 17 was 75.8.

Reference: US20120264616A1
